# Values of other authors in patent publication US10064909B2, “Compositions and methods for chronic use of a weight-gaining compound” (priority 2015, dated 2018).
# Ends that are not written are not given here.
# Conditions: in vivo; cited from earlier work
substance,measurement,value
"Ghrelin: hormone produced predominantly in the glandular stomach; endogenous ligand of the ghrelin receptor (GHS-R) (GSSFLSPEHQRVQQRKESKKPPAKLQPR; ends and bridges not checked; UniProt Q9UBU3 24-51, looked up)",half-life in the blood,approximately ten minutes
